Test results: PMC5469796, “Interaction of PKR with single-stranded RNA”
Values joined by “and” are separate entries in the source; they are usually repeats but may differ in a detail not shown here. Identical values can stand only once.

Key:
[1] = biological target: 229-kinase (UniProt P19525); assay: sedimentation velocity AUC; conditions: AU75: 75 mM HEPES pH 7.5, 75 mM NaCl, 0.1 mM EDTA, 0.1 mM TCEP, 20 °C, 50,000 rpm, 260 nm; errors are confidence intervals (95% joint stated for Table 2) …
[2] = biological target: 242-kinase (UniProt P19525); assay: sedimentation velocity AUC; conditions: AU75: 75 mM HEPES pH 7.5, 75 mM NaCl, 0.1 mM EDTA, 0.1 mM TCEP, 20 °C, 50,000 rpm, 260 nm; errors are confidence intervals (95% joint stated for Table 2) …
[3] = biological target: PKR full length (UniProt P19525 1-551); assay: sedimentation velocity AUC; Kd1, sequential 2:1; AU75: 75 mM HEPES pH 7.5, 75 mM NaCl, 0.1 mM EDTA, 0.1 mM TCEP, 20 °C, 50,000 rpm, 260 nm; errors are confidence intervals (95% joint stated for Table 2); crosslinking in AU75 + 10 mM EDTA, 0.5 µM RNA, 1 µM protein, on ice before UV; conditions: protein: recombinant, chain copies: 2
[4] = biological target: T1, PKR dsRBD (UniProt P19525 1-184); assay: sedimentation velocity AUC; Kd1; footnote b not in material; AU75: 75 mM HEPES pH 7.5, 75 mM NaCl, 0.1 mM EDTA, 0.1 mM TCEP, 20 °C, 50,000 rpm, 260 nm; errors are confidence intervals (95% joint stated for Table 2); crosslinking in AU75 + 10 mM EDTA, 0.5 µM RNA, 1 µM protein, on ice before UV; conditions: protein: recombinant; chain copies: 2; weak predicted secondary structure
[5] = biological target: 229-kinase (UniProt P19525 229-551); assay: sedimentation velocity AUC; Kd1, sequential 2:1; AU75: 75 mM HEPES pH 7.5, 75 mM NaCl, 0.1 mM EDTA, 0.1 mM TCEP, 20 °C, 50,000 rpm, 260 nm; errors are confidence intervals (95% joint stated for Table 2); crosslinking in AU75 + 10 mM EDTA, 0.5 µM RNA, 1 µM protein, on ice before UV; conditions: protein: recombinant; tags: TEV-cleaved, extra N-terminal Gly; chain copies: 2; single strand
[6] = biological target: T1, PKR dsRBD; assay: as above; conditions: protein: recombinant; chain copies: 2; single strand
[7] = biological target: 185-kinase (UniProt P19525 185-551); assay: as above; conditions: protein: recombinant; tags: TEV-cleaved, extra N-terminal Gly; chain copies: 2; single strand
[8] = biological target: 242-kinase (UniProt P19525 242-551); assay: sedimentation velocity AUC; 1:1 model; second protein not detected; AU75: 75 mM HEPES pH 7.5, 75 mM NaCl, 0.1 mM EDTA, 0.1 mM TCEP, 20 °C, 50,000 rpm, 260 nm; errors are confidence intervals (95% joint stated for Table 2); crosslinking in AU75 + 10 mM EDTA, 0.5 µM RNA, 1 µM protein, on ice before UV; conditions: protein: recombinant; tags: TEV-cleaved; single strand
[9] = weak predicted secondary structure

Sequence of PKR full length (P19525 whole entry): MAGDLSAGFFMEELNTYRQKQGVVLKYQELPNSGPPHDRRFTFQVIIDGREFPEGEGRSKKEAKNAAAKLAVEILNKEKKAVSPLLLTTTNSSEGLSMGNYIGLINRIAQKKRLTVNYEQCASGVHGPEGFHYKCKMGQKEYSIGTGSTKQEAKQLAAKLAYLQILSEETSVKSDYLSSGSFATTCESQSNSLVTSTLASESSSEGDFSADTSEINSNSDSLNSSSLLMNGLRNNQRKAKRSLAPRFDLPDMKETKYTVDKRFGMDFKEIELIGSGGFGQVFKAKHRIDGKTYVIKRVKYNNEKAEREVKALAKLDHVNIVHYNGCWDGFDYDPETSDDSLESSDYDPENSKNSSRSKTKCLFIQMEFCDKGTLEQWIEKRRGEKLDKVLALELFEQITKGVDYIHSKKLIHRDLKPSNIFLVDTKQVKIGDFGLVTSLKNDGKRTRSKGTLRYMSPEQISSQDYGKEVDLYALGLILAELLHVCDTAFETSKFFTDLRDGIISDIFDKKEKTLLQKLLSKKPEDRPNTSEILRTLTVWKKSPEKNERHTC
T1 sequence (P19525 1-184): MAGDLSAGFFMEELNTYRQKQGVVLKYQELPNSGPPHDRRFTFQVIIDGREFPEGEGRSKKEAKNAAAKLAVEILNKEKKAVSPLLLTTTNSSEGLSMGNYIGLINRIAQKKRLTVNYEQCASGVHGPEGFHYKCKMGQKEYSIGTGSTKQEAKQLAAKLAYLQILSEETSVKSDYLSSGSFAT
Sequence of 229-kinase (UniProt P19525 229-551) (P19525 229-551): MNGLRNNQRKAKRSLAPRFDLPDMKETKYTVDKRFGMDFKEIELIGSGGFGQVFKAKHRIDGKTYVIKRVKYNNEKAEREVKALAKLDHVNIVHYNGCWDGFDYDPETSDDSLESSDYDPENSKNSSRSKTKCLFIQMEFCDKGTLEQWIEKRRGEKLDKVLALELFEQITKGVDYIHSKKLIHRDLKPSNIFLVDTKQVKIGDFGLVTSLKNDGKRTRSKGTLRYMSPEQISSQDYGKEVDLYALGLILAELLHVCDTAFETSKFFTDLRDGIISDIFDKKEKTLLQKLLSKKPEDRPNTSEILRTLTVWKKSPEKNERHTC
Sequence of 229-kinase (UniProt P19525) (P19525 229-551): as above
Sequence of 185-kinase (P19525 185-551): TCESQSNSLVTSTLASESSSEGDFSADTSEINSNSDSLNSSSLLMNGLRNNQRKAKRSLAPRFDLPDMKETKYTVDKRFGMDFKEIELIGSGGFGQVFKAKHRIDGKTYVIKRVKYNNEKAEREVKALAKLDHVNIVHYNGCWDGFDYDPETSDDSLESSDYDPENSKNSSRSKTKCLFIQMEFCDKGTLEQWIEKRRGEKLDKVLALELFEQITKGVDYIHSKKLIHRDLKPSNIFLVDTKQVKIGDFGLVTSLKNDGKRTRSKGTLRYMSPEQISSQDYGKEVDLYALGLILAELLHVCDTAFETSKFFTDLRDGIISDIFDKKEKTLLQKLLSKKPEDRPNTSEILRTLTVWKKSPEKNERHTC
Sequence of 242-kinase (UniProt P19525) (P19525 242-551): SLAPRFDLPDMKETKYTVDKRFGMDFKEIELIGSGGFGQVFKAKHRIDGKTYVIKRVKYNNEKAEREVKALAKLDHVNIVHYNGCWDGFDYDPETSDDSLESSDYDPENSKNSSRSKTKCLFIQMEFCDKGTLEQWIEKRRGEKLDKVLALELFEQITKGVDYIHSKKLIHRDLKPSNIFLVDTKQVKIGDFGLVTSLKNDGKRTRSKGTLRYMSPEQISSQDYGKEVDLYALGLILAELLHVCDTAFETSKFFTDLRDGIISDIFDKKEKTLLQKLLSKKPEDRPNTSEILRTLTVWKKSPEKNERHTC
Sequence of 242-kinase (UniProt P19525 242-551) (P19525 242-551): as above

Molecule	Kd [3, 9] [nM]	Kd [4] [µM]	Kd [5] [nM]	other results
ds30				Kd [1]: 3.8 µM and 3.27 µM; Kd [2]: 19.9 µM
GGAGAACUUAAUGCCGGAGACCAAAGACUU (ssRNA, 5'-triphosphate) [ppp-Het30]	825	5.36		
GGAGAACUUAAUGCCGGAGACCAAAGACUU (ssRNA, 5'-OH) [Het30]	1070	8.21		
TTTTTTTTTTTTTTTTTTTTTTTTTTTTTT (ssDNA) [dT30]			2590	
UUUUUUUUUUUUUUUUUUUUUUUUUUUUUU (ssRNA) [U30]			1910	Kd ([3]; single strand): 3510 nM; Kd [6]: 8.42 µM; Kd [7]: 31.9 µM; Kd [8]: 90 µM
